Experimental data reported in the supplement of paper PMC10567573.
± gives the standard deviation.

Assay: protein stability index of a GFP-peptide fusion (GPS, HEK-293T) (PSI 1-6); higher = more stable
Details: c terminus: a fixed tail appended
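Also: 24-mer peptide tiles fused after GFP, lentivirally expressed, FACS-sorted into six equal bins by GFP/DsRed ratio, decoded by Illumina sequencing, PSI is the read-weighted mean bin number.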

| Sequence | protein stability index (treatment: DMSO) | protein stability index (treatment: MLN4924 1 uM, 8 h) |
| --- | --- | --- |
| IAHDFPGIGHKVDAVFMKDGFFYF [MMP1] | 2.41 ± 0.69 | 2.27 ± 0.16 |
| HSSSRDSHLSNGLDPVAETAIRQL [C2CD2L] | 4.42 ± 0.35 | 4.53 ± 0.18 |
| KFHHSDCLSTWLLHFIATNYLIFS [RHOBTB3] | 3.21 ± 0.23 | 3.05 ± 0.24 |
| SAAIHISETLEQKPHFESSTVKTE [EPB41L3] | 4.92 ± 0.66 | 5.06 ± 0.52 |
| FTQPQQTSFALERNLRTQQEIEDK [C8orf76] | 4.87 ± 0.37 | 4.9 ± 0.24 |
| ELTNGVINAAFMLLFKDLIKLFAC [SNAP91] | 3.57 ± 0.5 | 3.14 ± 0.57 |
| GFWETIFGNRIKRVKLISNKGTET [PHTF1] | 1.6 ± 0.16 | 2.74 ± 0.053 |
| QGVCYLVLCEAAFPKKLAFAYLED [SEC22B] | 3.26 ± 0.27 | 3.05 ± 0.058 |
| TPLTEGSEDLDGHSDPEESFARDL [RETREG3] | 5.51 ± 0.18 | 5.524 ± 0.053 |
| DVAVHMPCLGHTFNAGIQQAFQLP [ZBED1] | 2.53 ± 0.36 | 2.8 ± 0.36 |
| SMGFSARYNFTPDPDFKDLGALKP [NETO1] | 3.02 ± 0.33 | 3.26 ± 0.17 |
| AVDGILHMFTPKLDKMLDPQVWRE [SLC6A17] | 2.27 ± 0.34 | 2.53 ± 0.25 |
| ATEQAATQESTFQELCEGLLEESD [NOP53] | 5.61 ± 0.19 | 5.58 ± 0.12 |
| IVVGRLKVALEPQLWELGKVLRKA [LPCAT4] | 2.31 ± 0.37 | 2.61 ± 0.49 |
| CRERWHNHLNPEVKKSCWTEEEDR [MYBL2] | 4.2 ± 0.4 | 4.34 ± 0.25 |
| RVPLGRLELLEEVLALGLRTDVGI [RSAD1] | 2.1 ± 0.44 | 2.15 ± 0.31 |
| DLLPVWLLEDMRASEAFHWDERGR [ANKRD9] | 2.52 ± 0.5 | 2.87 ± 0.45 |
| SVREVTQIKCIELKSELGRKWHKA [P2RY14] | 2.83 ± 0.24 | 3.23 ± 0.29 |
| TSILSRLPPEALTAPSGGQWGAEP [RNF208] | 3.94 ± 0.14 | 4.05 ± 0.11 |
| ALAKKFIDKNTQLTLQVYREQADS [TRIM14] | 2.88 ± 0.31 | 3.09 ± 0.49 |
| YYTTPIYRFRMKCHLCVNYIEMQT [YJU2B] | 2.73 ± 0.43 | 2.51 ± 0.64 |
| IIKTEKVDLELFPSPDMECADVPL [ETS1] | 3.99 ± 0.19 | 3.97 ± 0.22 |

| Sequence | protein stability index (treatment: DMSO) | protein stability index (treatment: MLN4924 1 uM, 8 h) |
| --- | --- | --- |
| DILMEEEEGVVGGLSGGALSPLRA [TFE3] | 4.45 ± 0.42 | 4.11 ± 0.23 |
| SKNEVGIFTTPNFDETSSATTIST [KMT2E] | 4.76 ± 0.22 | 4.79 ± 0.17 |
| KQLRRQMWWRGCKIKAIMALVAAI [VAMP4] | 1.91 ± 0.44 | 1.92 ± 0.23 |
| GQESEVPYKREEEALEERRLSRGE [PKD2L1] | 5.39 ± 0.14 | 5.53 ± 0.15 |
| KKQPWWRKLFGQESGPSAEKYSVA [FUNDC2] | 3.1 ± 0.16 | 3.32 ± 0.35 |
| HAPKIGSNGVEMAAKFPSGSQRAR [SDE2] | 4.56 ± 0.13 | 4.62 ± 0.19 |
| VTPEAKDLINKMLTINPAKRITAS [CAMK2D] | 3.29 ± 0.29 | 3.33 ± 0.2 |
| SVNWRTGSFHGPGHISLRRENSSD [DLC1] | 3.78 ± 0.21 | 3.86 ± 0.2 |
| APLVKTLEKEEEKDLVMYSKCQRL [CDC25B] | 4.69 ± 0.42 | 4.59 ± 0.052 |
| PKQLRLINQPLPDLKNVKSKIGST [MAP2] | 3.9 ± 0.1 | 3.88 ± 0.19 |
| AVIYLKKTPEEAYRALLSGSNPPY [CDC14A] | 2.21 ± 0.44 | 2.15 ± 0.46 |
| DRECKLPPPSAPASEYCPGKLSWG [WDR88] | 3.79 ± 0.13 | 3.96 ± 0.36 |
| KIEDFREEMWTFRGKIHAFRGQIL [CCDC70] | 2.41 ± 0.24 | 2.09 ± 0.31 |
| PGPTAPSPTSRPPWAVDPAFAERY [PDLIM7] | 2.2 ± 0.43 | 3.02 ± 0.36 |
| ELDSSSSLCVLVSTVGKLCRLINE [CEP70] | 3.73 ± 0.53 | 3.6 ± 0.35 |
| AAKTLPGGAGKGRTPSAFPQTPAA [EHMT1] | 4.26 ± 0.33 | 4.39 ± 0.085 |
| AQDLGLKMTDLLSRRLQLGSEENG [PCDHGC5] | 3.94 ± 0.22 | 3.77 ± 0.19 |
| AVDCKWYIRAPPRSKIYLRFLDYE [NETO1] | 2.43 ± 0.24 | 2.19 ± 0.38 |
| RDGLAEDLAALKQRLEEETRKRED [PRPH] | 5.33 ± 0.33 | 5.25 ± 0.27 |
| MATYLRYVRRLDFFEKPDYDYLRK [CSNK1G3] | 2.31 ± 0.42 | 2.32 ± 0.12 |
| AAKIIPHSRVAKPHQREKIDKEIE [PLK2] | 5.02 ± 0.42 | 4.7 ± 0.4 |
| VAFVCAFSEALAEGAVKMGMPSSL [PYCR3] | 3.46 ± 0.41 | 2.42 ± 0.36 |
